From patent publication US20120134997A1 (COMPUGEN, published 2012) come the findings set out here.

The test deals with T1, B7H4-Ig (R&D Systems, Inc. cat.#4206-B7) (mouse, UniProt Q7TSP5 29-256).
T1 construct: Bought reagent; also called Recombinant mouse B7-H4 protein (R&D Systems, CAT #4206-B7); not shown: Ig part of the bought fusion; not described
T1 sequence (looked up): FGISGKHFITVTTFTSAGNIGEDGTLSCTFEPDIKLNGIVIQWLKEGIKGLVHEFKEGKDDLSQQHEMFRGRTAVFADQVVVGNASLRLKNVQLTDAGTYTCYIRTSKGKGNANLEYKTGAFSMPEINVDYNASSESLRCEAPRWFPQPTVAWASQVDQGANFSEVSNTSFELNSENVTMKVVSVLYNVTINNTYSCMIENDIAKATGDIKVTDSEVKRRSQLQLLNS
In words: BIAcore 3000 surface plasmon resonance; Fc fused AI216611 ECD (SEQ ID NO:104) immobilised directly on a CM5 chip (400-500 RU), B7H4-Ig injected at 5 and 10 µM, empty flow cell subtracted. Here is the method:
Solution containing two different concentrations of B7H4-Ig (5 and 10 micro molar) was injected. As control, the solutions were also injected onto an empty flow cell with no ligand immobilized.
Data was analyzed using BIAevaluation software ([…].). A zero baseline level was obtained by subtracting the background responses from injection of the analytes through a control flow cell with no ligand immobilized.
A general note: Surface plasmon resonance follows binding to a sensor surface in real time, without labels.

B1: AI216611_T0_P0_ECD_mFc (Fc fused AI216611 ECD, SEQ ID NO:104) (Fc fusion)
chain: LQSQGVSLYIPQATINATVKEDILLSVEYSCHGVPTIEWTYSSNWGTQKIVEWKPGTQANISQSHKDRVCTFDNGSIQLFSVGVRDSGYYVITVTERLGSSQFGTIVLHVSEILYEDGSENLYFQGSGEPRGPTIKPCPPCKCPAPNLLGGPSVFIFPPKIKDVLMISLSPIVTCVVVDVSEDDPDVQISWFVNNVEVHTAQTQTHREDYNSTLRVVSALPIQHQDWMSGKEFKCKVNNKDLPAPIERTISKPKGSVRAPQVYVLPPPEEEMTKKQVTLTCMVTDFMPEDIYVEWTNNGKTELNYKNTEPVLDSDGSYFMYSKLRVEKKNWVERNSYSCSVVHEGLHNHHTTKSFSRTPGK
notes: also called AI216611-ECD-Fc
Turning to B1, the binding result is on record as “binds”.
